{"source": "paper PMC10583602", "key": {"[1]": {"molecular_target": "TnsC with the apical loop E69-D75 deleted (Vibrio cholerae)", "test": "SEC"}, "[2]": {"molecular_target": "TnsC(ΔA106–A113) (Vibrio cholerae)", "test": "SEC"}, "[3]": {"molecular_target": "Vibrio cholerae TnsC (VchTnsC), full length, tag cleaved (Vibrio cholerae)", "test": "SEC"}, "[4]": {"molecular_target": "Vibrio cholerae TnsC (VchTnsC), full length, tag cleaved (Vibrio cholerae)", "test": "cryo-EM structure"}}}
{"substance": "TnsC with the apical loop E69-D75 deleted (natural protein)", "values": [{"measurement": "stoichiometry N", "setting": "[1]", "result": 7}]}
{"substance": "TnsC(ΔA106–A113) (natural protein)", "values": [{"measurement": "stoichiometry N", "setting": "[2]", "result": 7}]}
{"substance": "Vibrio cholerae TnsC (VchTnsC), full length, tag cleaved (natural protein)", "values": [{"measurement": "stoichiometry N", "setting": "[3]", "result": 7}, {"measurement": "stoichiometry N", "setting": "[4]", "result": 7}]}
